Reference: PMC7469494 (Autophagy, 2019)
Values belong to the binder of their own block, whether it stands above or below them.

B3: Vac8[40–515] (domain or fragment, S. cerevisiae, UniProt P39968 40-515, looked up)
chain: QLDFYSGGPLKALTTLVYSDNLNLQRSAALAFAEITEKYVRQVSREVLEPILILLQSQDPQIQVAACAALGNLAVNNENKLLIVEMGGLEPLINQMMGDNVEVQCNAVGCITNLATRDDNKHKIATSGALIPLTKLAKSKHIRVQRNATGALLNMTHSEENRKELVNAGAVPVLVSLLSSTDPDVQYYCTTALSNIAVDEANRKKLAQTEPRLVSKLVSLMDSPSSRVKCQATLALRNLASDTSYQLEIVRAGGLPHLVKLIQSDSIPLVLASVACIRNISIHPLNEGLIVDAGFLKPLVRLLDYKDSEEIQCHAVSTLRNLAASSEKNRKEFFESGAVEKCKELALDSPVSVQSEISACFAILALADVSKLDLLEANILDALIPMTFSQNQEVSGNAAAALANLCSRVNNYTKIIEAWDRPNEGIRGFLIRFLKSDYATFEHIALWTILQLLESHNDKVEDLVKNDDDIINGVRK
B4: Vac8[40–515]^N60R,N62R (domain or fragment, S. cerevisiae, UniProt P39968 40-515, looked up)
chain: QLDFYSGGPLKALTTLVYSDRLRLQRSAALAFAEITEKYVRQVSREVLEPILILLQSQDPQIQVAACAALGNLAVNNENKLLIVEMGGLEPLINQMMGDNVEVQCNAVGCITNLATRDDNKHKIATSGALIPLTKLAKSKHIRVQRNATGALLNMTHSEENRKELVNAGAVPVLVSLLSSTDPDVQYYCTTALSNIAVDEANRKKLAQTEPRLVSKLVSLMDSPSSRVKCQATLALRNLASDTSYQLEIVRAGGLPHLVKLIQSDSIPLVLASVACIRNISIHPLNEGLIVDAGFLKPLVRLLDYKDSEEIQCHAVSTLRNLAASSEKNRKEFFESGAVEKCKELALDSPVSVQSEISACFAILALADVSKLDLLEANILDALIPMTFSQNQEVSGNAAAALANLCSRVNNYTKIIEAWDRPNEGIRGFLIRFLKSDYATFEHIALWTILQLLESHNDKVEDLVKNDDDIINGVRK
B5: Vac8[40–515]^N62R (domain or fragment, S. cerevisiae, UniProt P39968 40-515, looked up)
chain: QLDFYSGGPLKALTTLVYSDNLRLQRSAALAFAEITEKYVRQVSREVLEPILILLQSQDPQIQVAACAALGNLAVNNENKLLIVEMGGLEPLINQMMGDNVEVQCNAVGCITNLATRDDNKHKIATSGALIPLTKLAKSKHIRVQRNATGALLNMTHSEENRKELVNAGAVPVLVSLLSSTDPDVQYYCTTALSNIAVDEANRKKLAQTEPRLVSKLVSLMDSPSSRVKCQATLALRNLASDTSYQLEIVRAGGLPHLVKLIQSDSIPLVLASVACIRNISIHPLNEGLIVDAGFLKPLVRLLDYKDSEEIQCHAVSTLRNLAASSEKNRKEFFESGAVEKCKELALDSPVSVQSEISACFAILALADVSKLDLLEANILDALIPMTFSQNQEVSGNAAAALANLCSRVNNYTKIIEAWDRPNEGIRGFLIRFLKSDYATFEHIALWTILQLLESHNDKVEDLVKNDDDIINGVRK

Assays:
AUC = molecular target: the molecule itself; assay: AUC
Vac8[40–515]^N62R = molecular target: B5; assay: SEC
Vac8[40–515]^N60R,N62R = molecular target: B4; assay: SEC
Vac8[40–578] = molecular target: T1, Vac8[40–578] (S. cerevisiae, UniProt P39968 40-578); assay: SAXS
T1 sequence (looked up): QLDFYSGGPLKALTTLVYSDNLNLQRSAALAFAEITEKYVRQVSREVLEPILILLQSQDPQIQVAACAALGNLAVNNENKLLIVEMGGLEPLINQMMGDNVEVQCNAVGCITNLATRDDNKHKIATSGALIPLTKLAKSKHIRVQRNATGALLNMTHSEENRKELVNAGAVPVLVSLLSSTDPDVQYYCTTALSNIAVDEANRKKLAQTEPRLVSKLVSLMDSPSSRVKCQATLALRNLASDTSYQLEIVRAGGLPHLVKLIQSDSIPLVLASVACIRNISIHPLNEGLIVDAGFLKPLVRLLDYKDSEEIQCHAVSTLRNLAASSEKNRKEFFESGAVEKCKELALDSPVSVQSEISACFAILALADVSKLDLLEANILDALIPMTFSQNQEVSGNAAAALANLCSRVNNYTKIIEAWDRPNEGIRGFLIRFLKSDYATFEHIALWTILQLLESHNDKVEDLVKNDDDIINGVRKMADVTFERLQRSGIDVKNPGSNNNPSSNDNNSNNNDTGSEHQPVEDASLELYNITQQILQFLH

Vac8[40–515]^A51R = molecular target: T2, Vac8[40–515]^A51R (S. cerevisiae, UniProt P39968 40-515, A51R); assay: cross-linking
T2 sequence (looked up): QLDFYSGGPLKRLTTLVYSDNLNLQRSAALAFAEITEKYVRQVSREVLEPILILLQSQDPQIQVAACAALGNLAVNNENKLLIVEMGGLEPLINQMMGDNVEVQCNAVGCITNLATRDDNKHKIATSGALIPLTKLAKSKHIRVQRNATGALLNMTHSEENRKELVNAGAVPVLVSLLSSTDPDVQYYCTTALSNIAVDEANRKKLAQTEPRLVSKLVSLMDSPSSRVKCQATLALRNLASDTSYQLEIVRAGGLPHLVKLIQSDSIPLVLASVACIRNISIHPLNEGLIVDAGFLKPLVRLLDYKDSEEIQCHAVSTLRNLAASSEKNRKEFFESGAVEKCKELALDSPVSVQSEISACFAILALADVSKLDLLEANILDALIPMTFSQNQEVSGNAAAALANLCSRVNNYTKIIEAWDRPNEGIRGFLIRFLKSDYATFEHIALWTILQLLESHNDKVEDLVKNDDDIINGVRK

Vac8[40–515] = molecular target: B3; assay: cross-linking
SEC [1] = molecular target: the molecule itself; assay: SEC
SEC [2] = molecular target: the molecule itself; assay: SEC; remark: listed apart in the source

B1: Vac8[Δ19–33] (full-length Vac8 lacking the H1 helix, residues 19–33) (natural protein, S. cerevisiae, UniProt P39968 1-578, looked up)
chain: MGSCCSCLKDSSDEASVSYLEDKDQLDFYSGGPLKALTTLVYSDNLNLQRSAALAFAEITEKYVRQVSREVLEPILILLQSQDPQIQVAACAALGNLAVNNENKLLIVEMGGLEPLINQMMGDNVEVQCNAVGCITNLATRDDNKHKIATSGALIPLTKLAKSKHIRVQRNATGALLNMTHSEENRKELVNAGAVPVLVSLLSSTDPDVQYYCTTALSNIAVDEANRKKLAQTEPRLVSKLVSLMDSPSSRVKCQATLALRNLASDTSYQLEIVRAGGLPHLVKLIQSDSIPLVLASVACIRNISIHPLNEGLIVDAGFLKPLVRLLDYKDSEEIQCHAVSTLRNLAASSEKNRKEFFESGAVEKCKELALDSPVSVQSEISACFAILALADVSKLDLLEANILDALIPMTFSQNQEVSGNAAAALANLCSRVNNYTKIIEAWDRPNEGIRGFLIRFLKSDYATFEHIALWTILQLLESHNDKVEDLVKNDDDIINGVRKMADVTFERLQRSGIDVKNPGSNNNPSSNDNNSNNNDTGSEHQPVEDASLELYNITQQILQFLH
- binding result (AUC): binds

- binding result (Vac8[40–515]^N62R): binds
- binding result (Vac8[40–515]^N60R,N62R): binds
- binding result (Vac8[40–578]): binds
- binding result (Vac8[40–515]^A51R): binds
- binding result (Vac8[40–515]): binds
B2: tNvj1 (Nvj1 construct comprising residues 229–321) (domain or fragment, S. cerevisiae, UniProt P38881 229-321, looked up)
chain: NREKDCSSSSEVESQSKCRKESTAEPDSLSRDTRTTSSLKSSTSFPISFKGSIDLKSLNQPSSLLHIQVSPTKSSNLDAQVNTEQAYSQPFRY

Binder: B3
- binding result (SEC [1]): binds

Binder: B4
- binding result (SEC [2]): binds

Binder: B5
- binding result (SEC [1]): binds
